Test results reported in patent publication US20240067747A1 (SHANGHAI HUAOTA BIOPHARMACEUTICAL, published 2024).
Substitutions are numbered along the chain they refer to.

T1: recombinant human CD73 protein (ACRO Biosystems, item No. CD3-H52H7) (human, UniProt P21589 27-547)
T1 construct: also called recombinant CD73 protein
T1 sequence (looked up): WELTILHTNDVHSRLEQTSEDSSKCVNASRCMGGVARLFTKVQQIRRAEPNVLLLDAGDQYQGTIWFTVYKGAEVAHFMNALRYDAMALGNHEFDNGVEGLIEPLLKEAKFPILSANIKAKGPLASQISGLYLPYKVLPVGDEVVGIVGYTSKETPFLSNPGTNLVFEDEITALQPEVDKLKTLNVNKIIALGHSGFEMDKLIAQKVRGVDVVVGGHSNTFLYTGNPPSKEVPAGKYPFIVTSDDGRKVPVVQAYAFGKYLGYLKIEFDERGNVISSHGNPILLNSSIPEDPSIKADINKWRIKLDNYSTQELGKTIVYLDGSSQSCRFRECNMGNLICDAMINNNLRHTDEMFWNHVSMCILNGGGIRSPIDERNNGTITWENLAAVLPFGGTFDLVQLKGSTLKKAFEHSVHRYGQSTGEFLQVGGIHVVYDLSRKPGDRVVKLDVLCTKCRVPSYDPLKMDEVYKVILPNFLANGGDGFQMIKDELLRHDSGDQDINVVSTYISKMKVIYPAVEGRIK

T2: human CD73 on the cell surface of CHOK1-huCD73-3F4 cells (Huabo Biopharm) (human, UniProt P21589 27-549)
T2 sequence (looked up): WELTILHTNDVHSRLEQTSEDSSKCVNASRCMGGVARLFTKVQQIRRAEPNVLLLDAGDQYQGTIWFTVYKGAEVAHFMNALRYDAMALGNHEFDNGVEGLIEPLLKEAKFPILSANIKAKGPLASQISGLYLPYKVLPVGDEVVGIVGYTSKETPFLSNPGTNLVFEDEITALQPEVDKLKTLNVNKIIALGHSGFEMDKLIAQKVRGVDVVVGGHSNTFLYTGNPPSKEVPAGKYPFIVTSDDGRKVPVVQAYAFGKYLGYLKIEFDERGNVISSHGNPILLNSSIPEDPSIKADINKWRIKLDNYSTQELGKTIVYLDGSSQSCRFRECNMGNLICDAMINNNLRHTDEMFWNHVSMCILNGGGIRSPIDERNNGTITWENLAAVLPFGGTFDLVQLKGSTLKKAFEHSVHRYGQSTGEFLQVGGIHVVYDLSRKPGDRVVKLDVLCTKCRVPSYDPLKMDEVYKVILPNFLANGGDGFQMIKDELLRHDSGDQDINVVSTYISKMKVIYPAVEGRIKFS

T3: Cynomolgus CD73 protein (Novoprotein, item No. CI21) (cynomolgus, UniProt A0A2K5V5U7 27-547)
T3 construct: Bought protein
T3 sequence: T1 sequence (looked up) with M199T, T350A, V466I

B1: 900725 (humanized anti-CD73 antigen-binding protein) (antibody, V domains shown)
VH: QVQLVQSGAEVKKPGASVKLSCKASGYTFTSYWIHWVRQAPGQGLEWIGMIHPNSGSTYYNEKFKGRATLTVDKSTSTAYMELSSLRSEDTAVYYCARYYGSDYEWYFDVWGQGTTVTVSS
VL: DIQMTQSPSSMSASVGDRVTITCKASQNVRTAVVWYQQKPGKAPKALIYLASNRHTGVPDRFSGSGSGTDFTLTISSLQPEDFATYFCLQHWNYPYTFGQGTKLEIK
B2: 900726 (humanized anti-CD73 antigen-binding protein) (antibody, V domains shown)
VH: B1 VH
VL: B1 VL with M11L, F87Y
B3: 900727 (humanized anti-CD73 antigen-binding protein) (antibody, V domains shown)
VH: B1 VH with L20V, N61A, E62Q, K65Q, A68V, L70I
VL: B1 VL
B4: 900728 (humanized anti-CD73 antigen-binding protein) (antibody, V domains shown)
VH: B1 VH with L20V, K65Q, A68V, L70M
VL: B1 VL with M11L, F87Y
B5: 900567 (human-mouse chimeric anti-CD73 antigen-binding protein expressed from 124A9 variable regions) (antibody, V domains shown)
VH: QVQLQQPGAELVKPGASVKLSCKASGYTFTSYWIHWVKQRPGQGLDWIGMIHPNSGSTYYNEKFKSKATLTVDKSSSTAYMQLSSLTSEDSAVYYCARYYGSDYEWYFDVWGTGTTVTVSS
VL: DIVMTQSQKFMSTSVGDRVSITCKASQNVRTAVVWYQQNPGQSPKALIYLASNRHTGVPDRFTGSGSGTDFTLTISNVHSEDLADYFCLQHWNYPYTFGGGTKLEIK

These binders were tested against T1, recombinant human CD73 protein (ACRO …) (assay: ELISA, plate coated with CD73 protein, anti-human-IgG-Fc-HRP).
Protocol: The ELISA well plate was coated with 30 ul of 2 ug/ml CD73 protein (ACRO, #CD3-H52H7-100μg) solution and incubated overnight at 4° C. Then, the well plate was washed 3 times with PBST, blocked with 5% MILK/PBS at room temperature for 1 h, and then washed 3 times with PBST. […] The diluted antigen-binding protein solutions were then added to the ELISA well plate, 30 ul per well, and incubated at room temperature for 30 min. After the incubation, the well plate was washed 3 times. Anti-human-IgG-Fc-HRP was added and incubated at room temperature for 50 min. After the incubation, the well plate was washed 3 times. The TMB solution was added. The reaction was then terminated with 2M HCl and the OD450 reading was checked.
B1 was tested, and the EC50 was 0.327 µg/mL. For B2, the EC50 was 0.361 µg/mL. Work on B3 yielded an EC50 of 0.364 µg/mL. Binder B4 has an EC50 of 0.29 µg/mL. Work on B5 yielded an EC50 of 0.282 µg/mL.

What follows are binders tested against T2, human CD73 on the cell surface of … (assay: cell-based or functional assay).
B5 was tested, and the “EC50 of inhibition of the enzyme activity of CD73 on cell membrane (AMP/ATP, CellTiter-Glo)” value was 0.0749 µg/mL.

The binders below were run against T3, Cynomolgus CD73 protein (Novoprotein, …) (assay: SPR, Biacore T200, antibody captured on protein A chip, cynomolgus CD73 as analyte, 1:1 model).
Protocol: In the tests, the assay buffer HBS-EP+ (pH 7.4) and the protein A chip (manufacturer: GE, item No.: 29-1275-56) were used.
The temperatures of a sample chamber and a flow path were set at 25° C., and the protein A chip respectively captured antigen-binding proteins as ligands and immobilized at about 100 RU. […] After association for 120 s at a flow rate of 30 μL/min, dissociation was carried out for 600 s. Regeneration was then carried out for 60 s with 10 mM Glycine (pH 1.5) at a flow rate of 50 μL/min to implement multi-cycle kinetic detection. A 1:1 binding model was selected for fitting analysis in a Fit local mode to acquire the association rate constant (ka), dissociation rate constant (kd) and dissociation equilibrium rate constant (KD).
B1 gave a Kd of 0.368 nM, a koff of 0.000156 s⁻¹ and a kon of 425000 M⁻¹ s⁻¹. B2 gave a Kd of 2 nM, a koff of 0.0032 s⁻¹ and a kon of 1.6e+06 M⁻¹ s⁻¹. With B3 the Kd was 0.798 nM, the koff was 0.00074 s⁻¹ and the kon was 927000 M⁻¹ s⁻¹. B4 gave a Kd of 0.561 nM, a koff of 0.000381 s⁻¹ and a kon of 678000 M⁻¹ s⁻¹. B5 was tested, and the Kd was 0.709 nM, the koff was 0.000606 s⁻¹ and the kon was 855000 M⁻¹ s⁻¹.
